Experimental data as given in patent publication US20160046921A1.
One block for each binder: values may come before it.

Experiments:
[1] = molecular target: T1, cys-gly-conjugate (compound of formula FIII)
T1 chain: CG

[2] = molecular target: T2, Pro-Gly
T2 chain: PG

[3] = molecular target: cys-gly-conjugate (compound of formula FIII); assay: cell-based or functional assay
[4] = molecular target: T3, Ala-Ala
T3 chain: AA

[5] = molecular target: T4, Ala-Gly
T4 chain: AG

[6] = molecular target: T5, Gly-Gly
T5 chain: GG

[7] = molecular target: T6, H-Cys(Bzl)-Gly-OH (S-benzyl-Cys-Gly)
T6 chain: CG

[8] = molecular target: T7, Z-Gly-Gly
T7 chain: GG

B1: β-lyase from Corynebacterium sp. Ax20 (cystathionine-β-lyase, metC gene product) (protein)
chain: MQFSNLDTLRTRGTRKWTQFDDDVIPMFVAESDFPTAPAIKEAIIDACEREMFGYTPAPHAHHLGEAVADFYDWRYGWRPDAAKIFPVADVVRGVLLAIQYFTDGDVIVPVPAYFPFLPIAEAAGRNRIDISSDKGLEGGLDMAEVEEAFKNGAGSIIVTNPFNPGGWMFTSEELDQICDIARRYKGRVLVDEIHAPLTYGKRHVCAAANNPDVCITVTATSKAWNVAGLKCAQMIFTNDEDVKTWNAINPVAKDGVGTLGIIAAEAAYESGREHLDWQVEQLKANRDWLVENLPSLIPGIRFEIPDATYLMFLDFKDTKLGVDKPAAYLLKHARVALSEGVDFGPGGEHRARMNFATSPEILKEATERIARAIEVV
release of 3-sulfanyl-3-methyl-hexanol from cys-gly-conjugate [mM] (gas chromatography) [1]: < 0.03 mM

release of 3-sulfanyl-3-methyl-hexanol from the Cys-Gly-conjugate [mM]; 10 fold dilution of clear cell lysate, + β-lyase [3]: 1 mM | release of 3-sulfanyl-3-methyl-hexanol from the Cys-Gly-conjugate [mM]; 100 fold dilution of clear cell lysate, + β-lyase [3]: 0.92 mM | release of 3-sulfanyl-3-methyl-hexanol from the Cys-Gly-conjugate [mM]; 1000 fold dilution of clear cell lysate, + β-lyase [3]: 0.46 mM
B2: Ax20 peptidase (peptidase from Corynebacterium sp. Ax20, SEQ ID NO:2), recombinant, without histidine tag (enzyme)
chain: MSNDKAATSTNFNLTPNRERIFQELSELISHYSPHSMPEHADTHEEAAKWVTAKLEELGLDVTRHPTVDDADTIIGVKEPVGDAPTILLYSHYDVVPAQNPAVWTNDPLELDERDGRWYGRGAADCKGNVIMHLEALRMVQENGGTDLGLKVVMEGSEELGGEDGLGKLIDANPELFTADVIFIGDGGNVAVGIPTLTTHLRGGAQLRFKVDTLEGPVHSGGWGGAAPDAAHALIRIIDSFFDEHGRTTIEGVDTTAKWEGDPYDRETFRKDARVLDGVQLLGTVDDEPADMVWARPAITVIGFTSVPVEDATNIVNPTAEAQFNLRVPAPQSAAEVAKKVEEQIRARAPWGAKVEVSITGVNEPFSTDPNGPAVQHFGKCLQDAYGAEHLTVVGTGGSIPLTVTLQKHFPDAEFALYGVADPAANIHGVDESVDPTEIEHVAIAEAEFLLTYGK
release of a free NH2 group (fluorescamine derivatisation) [2]: Cleavage of the peptide substrate Pro-Gly by addition of the recombinant Ax20 peptidase (SEQ ID NO: 2) released a unique free NH2 group

release of 3-sulfanyl-3-methyl-hexanol from the Cys-Gly-conjugate [mM]; 10 fold dilution of clear cell lysate, + β-lyase [3]: 0.94 mM | release of 3-sulfanyl-3-methyl-hexanol from the Cys-Gly-conjugate [mM]; 100 fold dilution of clear cell lysate, + β-lyase [3]: 0.88 mM | release of 3-sulfanyl-3-methyl-hexanol from the Cys-Gly-conjugate [mM]; 1000 fold dilution of clear cell lysate, + β-lyase [3]: 0.36 mM
B3: Ax20 peptidase with histidine tag (SEQ ID NO:2 ligated to a 6x Histidine-Tag), recombinant (enzyme, not shown: small tags and cut ends)
chain: B2 chain
Cleavage (thin layer chromatography) [4]: ++ | Cleavage (thin layer chromatography) [5]: ++ | Cleavage (thin layer chromatography) [6]: + | Cleavage (thin layer chromatography) [7]: +++ | Cleavage (thin layer chromatography) [2]: + | Cleavage (thin layer chromatography) [8]: - | Cleavage (thin layer chromatography) [1]: +++
